Reference: the supplement of paper PMC9112550, “Optimization of the antimicrobial peptide Bac7 by deep mutational scanning” (BMC Biology, 2022)

System: Escherichia coli TOP10
Assay: shrunken log2 fold change of peptide-encoding DNA abundance (4.5 h post-induction vs induction); higher = less antimicrobial activity (less host growth inhibition)
Settings: time post-induction: 4.5 h; library: site-saturation at positions 5, 18, 19, 20
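Also: peptides expressed intracellularly from a pBAD plasmid library in pooled LB shake-flask culture, induced with 0.3% L-arabinose, DNA abundance read by NGS, three biological replicates, DESeq2 with apeglm shrinkage.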

Row | Sequence | shrunken log2 fold change
1 | RRIRQRPPRLPRPRPRPDGRPRP | 0.0192
2 | RRIRQRPPRLPRPRPRPDKQPRP | 0.0312
3 | RRIRQRPPRLPRPRPRPDMTPRP | -0.129
4 | RRIRQRPPRLPRPRPRPDNEPRP | -0.359
5 | RRIRQRPPRLPRPRPRPDNHPRP | -0.35
6 | RRIRQRPPRLPRPRPRPDQAPRP | 0.0424
7 | RRIRQRPPRLPRPRPRPDQNPRP | -0.377
8 | RRIRQRPPRLPRPRPRPDSMPRP | -0.17
9 | RRIRQRPPRLPRPRPRPDVFPRP | -0.211
10 | RRIRQRPPRLPRPRPRPECEPRP | 0.028
11 | RRIRQRPPRLPRPRPRPEDMPRP | 0.0353
12 | RRIRQRPPRLPRPRPRPEDNPRP | -0.0442
13 | RRIRQRPPRLPRPRPRPEFHPRP | -0.0296
14 | RRIRQRPPRLPRPRPRPEFTPRP | -0.0117
15 | RRIRQRPPRLPRPRPRPEFYPRP | -0.0478
16 | RRIRQRPPRLPRPRPRPEHTPRP | -0.0628
17 | RRIRQRPPRLPRPRPRPEICPRP | 0.0414
18 | RRIRQRPPRLPRPRPRPEIMPRP | 0.103
19 | RRIRQRPPRLPRPRPRPEISPRP | 0.139
20 | RRIRQRPPRLPRPRPRPEKMPRP | -0.145
21 | RRIRQRPPRLPRPRPRPEKVPRP | -0.155
22 | RRIRQRPPRLPRPRPRPELPPRP | -0.0769
23 | RRIRQRPPRLPRPRPRPELVPRP | -0.142
24 | RRIRQRPPRLPRPRPRPEMMPRP | 0.151
25 | RRIRQRPPRLPRPRPRPENIPRP | -0.0809

Row | Sequence | shrunken log2 fold change
26 | RRIRQRPPRLPRPRPRPEPEPRP | 0.813
27 | RRIRQRPPRLPRPRPRPEPWPRP | 0.153
28 | RRIRQRPPRLPRPRPRPERCPRP | 0.00749
29 | RRIRQRPPRLPRPRPRPESGPRP | 0.0279
30 | RRIRQRPPRLPRPRPRPESNPRP | -0.257
31 | RRIRQRPPRLPRPRPRPETMPRP | 0.192
32 | RRIRQRPPRLPRPRPRPEVAPRP | 0.00859
33 | RRIRQRPPRLPRPRPRPEVGPRP | -0.0239
34 | RRIRQRPPRLPRPRPRPEVMPRP | 0.0824
35 | RRIRQRPPRLPRPRPRPEVYPRP | -0.0137
36 | RRIRQRPPRLPRPRPRPEYRPRP | 0.0706
37 | RRIRQRPPRLPRPRPRPFCCPRP | -0.114
38 | RRIRQRPPRLPRPRPRPFDKPRP | -0.0121
39 | RRIRQRPPRLPRPRPRPFDLPRP | -0.318
40 | RRIRQRPPRLPRPRPRPFERPRP | 0.0412
41 | RRIRQRPPRLPRPRPRPFFWPRP | 0.314
42 | RRIRQRPPRLPRPRPRPFGGPRP | 0.0432
43 | RRIRQRPPRLPRPRPRPFHNPRP | -0.152
44 | RRIRQRPPRLPRPRPRPFHSPRP | -0.00884
45 | RRIRQRPPRLPRPRPRPFKCPRP | 0.00905
46 | RRIRQRPPRLPRPRPRPFLGPRP | -0.38
47 | RRIRQRPPRLPRPRPRPFLHPRP | 0.0118
48 | RRIRQRPPRLPRPRPRPFMVPRP | -0.686
49 | RRIRQRPPRLPRPRPRPFRTPRP | -0.255
50 | RRIRQRPPRLPRPRPRPFRWPRP | -0.0233

Row | Sequence | shrunken log2 fold change
51 | RRIRQRPPRLPRPRPRPFSRPRP | 0.00616
52 | RRIRQRPPRLPRPRPRPFSSPRP | -0.0951
53 | RRIRQRPPRLPRPRPRPFSTPRP | 0.0344
54 | RRIRQRPPRLPRPRPRPFSWPRP | -0.0597
55 | RRIRQRPPRLPRPRPRPFTIPRP | 0.0944
56 | RRIRQRPPRLPRPRPRPFTWPRP | -0.398
57 | RRIRQRPPRLPRPRPRPFVGPRP | -0.237
58 | RRIRQRPPRLPRPRPRPFVHPRP | -0.0465
59 | RRIRQRPPRLPRPRPRPFVQPRP | -0.0936
60 | RRIRQRPPRLPRPRPRPFVVPRP | 0.0366
61 | RRIRQRPPRLPRPRPRPFYYPRP | -0.59
62 | RRIRQRPPRLPRPRPRPGADPRP | 0.47
63 | RRIRQRPPRLPRPRPRPGENPRP | -0.0193
64 | RRIRQRPPRLPRPRPRPGFFPRP | 0.128
65 | RRIRQRPPRLPRPRPRPGGNPRP | -0.0842
66 | RRIRQRPPRLPRPRPRPGGRPRP | 0.456
67 | RRIRQRPPRLPRPRPRPGHAPRP | 0.116
68 | RRIRQRPPRLPRPRPRPGHGPRP | -0.124
69 | RRIRQRPPRLPRPRPRPGHYPRP | -0.00181
70 | RRIRQRPPRLPRPRPRPGIRPRP | 0.346
71 | RRIRQRPPRLPRPRPRPGLFPRP | -0.176
72 | RRIRQRPPRLPRPRPRPGMCPRP | 0.0819
73 | RRIRQRPPRLPRPRPRPGMQPRP | 0.00486
74 | RRIRQRPPRLPRPRPRPGMYPRP | -0.35
75 | RRIRQRPPRLPRPRPRPGNDPRP | -0.299

Row | Sequence | shrunken log2 fold change
76 | RRIRQRPPRLPRPRPRPGPQPRP | 0.722
77 | RRIRQRPPRLPRPRPRPGQGPRP | -0.000829
78 | RRIRQRPPRLPRPRPRPGQRPRP | 0.0565
79 | RRIRQRPPRLPRPRPRPGRYPRP | -0.205
80 | RRIRQRPPRLPRPRPRPGTAPRP | 0.206
81 | RRIRQRPPRLPRPRPRPGTVPRP | -0.00591
82 | RRIRQRPPRLPRPRPRPGVGPRP | 0.18
83 | RRIRQRPPRLPRPRPRPGVSPRP | -0.0696
84 | RRIRQRPPRLPRPRPRPGWSPRP | 0.119
85 | RRIRQRPPRLPRPRPRPGWTPRP | 0.286
86 | RRIRQRPPRLPRPRPRPGWYPRP | 0.126
87 | RRIRQRPPRLPRPRPRPGYDPRP | -0.0645
88 | RRIRQRPPRLPRPRPRPHAIPRP | -0.562
89 | RRIRQRPPRLPRPRPRPHANPRP | -0.671
90 | RRIRQRPPRLPRPRPRPHCIPRP | 0.0493
91 | RRIRQRPPRLPRPRPRPHCYPRP | -0.0282
92 | RRIRQRPPRLPRPRPRPHEQPRP | 0.0505
93 | RRIRQRPPRLPRPRPRPHGIPRP | 0.179
94 | RRIRQRPPRLPRPRPRPHGVPRP | -0.226
95 | RRIRQRPPRLPRPRPRPHHAPRP | -0.00332
96 | RRIRQRPPRLPRPRPRPHHMPRP | -0.256
97 | RRIRQRPPRLPRPRPRPHHSPRP | -0.107
98 | RRIRQRPPRLPRPRPRPHIGPRP | -0.0345
99 | RRIRQRPPRLPRPRPRPHKRPRP | -0.218
100 | RRIRQRPPRLPRPRPRPHKWPRP | -0.2

Row | Sequence | shrunken log2 fold change
101 | RRIRQRPPRLPRPRPRPHLRPRP | -0.0964
102 | RRIRQRPPRLPRPRPRPHMPPRP | -0.0493
103 | RRIRQRPPRLPRPRPRPHPCPRP | -0.0985
104 | RRIRQRPPRLPRPRPRPHPWPRP | 0.0242
105 | RRIRQRPPRLPRPRPRPHQMPRP | 0.0681
106 | RRIRQRPPRLPRPRPRPHRKPRP | -0.227
107 | RRIRQRPPRLPRPRPRPHRLPRP | -0.0506
108 | RRIRQRPPRLPRPRPRPHTQPRP | 0.0338
109 | RRIRQRPPRLPRPRPRPHTVPRP | -0.484
110 | RRIRQRPPRLPRPRPRPHWAPRP | -0.143
111 | RRIRQRPPRLPRPRPRPIAQPRP | 0.0718
112 | RRIRQRPPRLPRPRPRPICLPRP | 0.144
113 | RRIRQRPPRLPRPRPRPICRPRP | 0.0232
114 | RRIRQRPPRLPRPRPRPIEAPRP | -0.00454
115 | RRIRQRPPRLPRPRPRPIHHPRP | -0.167
116 | RRIRQRPPRLPRPRPRPIILPRP | -0.516
117 | RRIRQRPPRLPRPRPRPIIRPRP | 0.00525
118 | RRIRQRPPRLPRPRPRPIKIPRP | -0.0595
119 | RRIRQRPPRLPRPRPRPILNPRP | -0.098
120 | RRIRQRPPRLPRPRPRPILSPRP | 0.0165
121 | RRIRQRPPRLPRPRPRPIMDPRP | -0.179
122 | RRIRQRPPRLPRPRPRPIMPPRP | -0.361
123 | RRIRQRPPRLPRPRPRPIPAPRP | 0.214
124 | RRIRQRPPRLPRPRPRPIPNPRP | -0.0226
125 | RRIRQRPPRLPRPRPRPIRMPRP | -0.291

Row | Sequence | shrunken log2 fold change
126 | RRIRQRPPRLPRPRPRPIRNPRP | -0.0231
127 | RRIRQRPPRLPRPRPRPISPPRP | -0.0311
128 | RRIRQRPPRLPRPRPRPITPPRP | -0.0347
129 | RRIRQRPPRLPRPRPRPIWCPRP | -0.0171
130 | RRIRQRPPRLPRPRPRPKAAPRP | -0.0496
131 | RRIRQRPPRLPRPRPRPKASPRP | -0.0573
132 | RRIRQRPPRLPRPRPRPKDCPRP | -0.00225
133 | RRIRQRPPRLPRPRPRPKDHPRP | -0.185
134 | RRIRQRPPRLPRPRPRPKDKPRP | -0.386
135 | RRIRQRPPRLPRPRPRPKDRPRP | -0.115
136 | RRIRQRPPRLPRPRPRPKDVPRP | 0.00879
137 | RRIRQRPPRLPRPRPRPKEAPRP | 0.107
138 | RRIRQRPPRLPRPRPRPKFKPRP | 0.0538
139 | RRIRQRPPRLPRPRPRPKGNPRP | -0.365
140 | RRIRQRPPRLPRPRPRPKHMPRP | -0.237
141 | RRIRQRPPRLPRPRPRPKHRPRP | -0.0509
142 | RRIRQRPPRLPRPRPRPKHSPRP | -0.0171
143 | RRIRQRPPRLPRPRPRPKIEPRP | -0.32
144 | RRIRQRPPRLPRPRPRPKIMPRP | -0.668
145 | RRIRQRPPRLPRPRPRPKKCPRP | -0.0485
146 | RRIRQRPPRLPRPRPRPKLWPRP | -0.0821
147 | RRIRQRPPRLPRPRPRPKMCPRP | -0.002
148 | RRIRQRPPRLPRPRPRPKNLPRP | -0.186
149 | RRIRQRPPRLPRPRPRPKPDPRP | 0.313
150 | RRIRQRPPRLPRPRPRPKPIPRP | -0.112
